Assay results as given in the DeepSol protein solubility set.

Test: soluble on expression in E. coli; label from the status in PepcDB or PDB records

Row | Sequence | soluble on expression in E. coli
1 | MLAKSIPLGIYEKALPAGECWLERLKLAKALGFDFVEMSLDETDARLARLDWSPEQRLALVKAVAETGVRVPSMCLSAHRRFPLGSEDDAVRHQGLEIMRKAIQLAQDVGIRVIQLAGYDVYYQQANDETRRRFRDGLKQSVEMASRAQVTLAMEIMDYPLMNSISKALGYAHYLNNPWFQLYPDIGNLSAWDNDVQMELKAGSGHIVAVHVKDTKPGVFKNVPFGEGVVDFERCFETLKQTGYCGPYLIEMWSETSADPLAEVAKARDWVKARMARAGLMEAA | not soluble
2 | MQNNSYGYAVSVRVGGKEHRHWERYDIDSDFLIPADSFDFVIGRLGPEAAIPDLSGESCEVVIDGQIVMTGIIGSQRHGKSKGSRELSLSGRDLAGFLVDCSAPQLNVKGMTVLDAAKKLAAPWPQIKAVVLKAENNPALGKIDIEPGETVWQALTHIANSVGLHPWLEPDGTLVVGGADYSSPPVATLCWSRTDSRCNIERMDIEWDTDNRFSEVTFLAQSHGRSGDSAKHDLKWVYKDPTMTLHRPKTVVVSDADNLAALQKQAKKQLADWRLEGFTLTITVGGHKTRDGVLWQPGLRVHVIDDEHGIDAVFFLMGRRFMLSRMDGTQTELRLKEDGIWTPDAYPK | not soluble
3 | MGRFRRVLTTAVLTTLLVGGTAGWASASSASVPGGPLPGTAAWLADDFLGRELPDPGTATPAEVAAFFAGLSDVQRHRLAEDHPAVVGNLDGVPVHLRYEANAPAGDRVLAYDPRGRGTIARVAGDLENAAHVSVIVPGSDIDAETFDRTAQRAADLQAAAGDDTAVIAWAGYTTPSGIGPDLATGRLAEAGAERLARLTEGLDAAGLPDPSLFCHSYGSVVCGLAADDTDARDIVVMGSPGMRADDVGALGTDAHVWAAKSPDDWIDRVPNVEFLGLGHGADPTSPGFGATVLPADDVPAHDEYFTPGTSTLAAFAAIADGERPLEHHHHHH | not soluble
4 | MAHHHHHHMNKVVIISIFFFFFFQDHNNKSINSYNKINSSSTYTHSRILKQLEFITLEEKTVNALQEMLDSVEEDPSEKKCNRLLAKLKIRNEYHKHRKPHNYYARKNKKKEQKRQHLKKNKGKLNRLQQLEEKLFTHADLLRSAIFERTSRVPDGIFYT | not soluble
5 | MGSDKIHHHHHHMEPAELLKKIHQLPRLPKAVSELLEAVNNDQISIKDIAAKVSQDPLMSARVLRLANSSYFGANRKVASIDAAVVRLGMQTLRNLVIASAVVGAVPKAEGVDLGGFWGATFEVALYSQELAKHTHIPPEEAFTCGILHNIGDLFIATAAPDAAKAIDKAVMAGADKQETELKILDFDAATIGALLAQSWRFTDKLAAGIANQYQPKEAELYSDLAGLMYMAKALFSGWDEIEDDAITGWLSVQAMNAGLEMDMSDLAADLLKVKGSGLEMGQLLA | not soluble
6 | MSDSDSVGESSHPKKTAPKKEKASPKNKKDDANESMVMTEEDRNVFTSIDKKGGGSKQMAIVDIYQKKSQLEHILLRPDSYIGSIEHTEKKPMWVYNMEDSKLEQRDISYVPGLFKIYDEILVNAADNKQRDRKMNTIRVTINKAKNEISVYNNGKGIPVTQHKVEKVFVPELIFGSLLTSSNFVGNQKAMIGGRNGYGAKLCNIFSTKFTCETSSRVYKSAFKQTWINNMTRDEEPTIVPSTDEDFTKITFSPDLAKFKMKELDDDICHLMARRAYDVAATCKGVDVILNGEMISVKGFEDYVKMYTSQITFEGEPLKTVYEQIGNRWQVALALSDVGFQQISFANNVSTTKGGRHVDHVVDQMIARLKGSIKQELSKDVDPFMIENHLWVFVNCLIEWPTFDSQTKEMMTLRHDRFGSTCALSKKFCKTALQIGLIRQISREIGVDIRENLVQKASESSPIKCIPKLEDAKEAGTKTSERCTLIVTEGDSAKTLAISGLSVVGRDKFGVFPLRGKLLNVRDASVKQIAENAEVNAMIKILGLQRDLKYEFDDEFRTLRYGKLMIMADQDQDGSHIKGLIISFLHHFWPSLIQRNFVEEFITPIVKATKGKEEVSFYSLPEYSEWRTNTDNWKSYKIKYYKGLGTSTAKEAKE | not soluble
7 | MVKDKQKAIFSENLNSYIAKSEKTQLEIAKSIGVSPQTFNTWCKGIAIPRMGKVQALADYFNINKSDLIEDKKLNIDTVPIESGYTIPVLGRVAAGYGKEAVEEVIGQIEISPSMAAKGDYFGLLIKGDSMIPTLYDGDTVIVERTDDAESGDLVIALVNGSDATCKRLQKYAEGIALIPQNPVYEPMRFTESEIDTTPVKILGKVVEMRRKFLEHHHHHH | soluble
8 | MTSVSGCGSVSLITNRSAFLGNGLQHRAVFLKPWSSSSLQSRSMVVEAKTKTSSEDRIARHSRIRKKVNGTTERPRLCVFRSNKHLYVQVIDDTKMHTLASASTKQKPISEEFDYTSGPTIEVAKKVGEVIAKSCLEKGITKVAFDRGGYPYHGRIEALAAAAREHGLQF | not soluble
9 | MKIALIGITGRVGSRLADELLRRGHHVTGIARDPASVRPQPNLTARQGDAAVPEDLAPILAGHDAVISAARFVSLDAKPLLAAIRQAGVPRLLVVGGAGSLQVAPGVALIDTPEFPDAYKPEARAGVVFLDTLRREQEVEWTFLSPSALFEPGERTGEFRLGADLLLADDEGKSWISMEDYAIALVDELETPRHARRRFTVGYLEHHHHHH | not soluble
10 | MDGMGTLTRYLEEAMARARYELIADEEPYYGEIPDLPGVWATGKSLKECEANLQAALEDWLLFLLSRGETPPPLGEVRIELPHGEAA | soluble
11 | MGSDKIHHHHHHMDGLLNPRESSKFIAENSRDVFIDSGGVRRVAELLLAKAAGPELRVEGWKALHELNPRAADEAAVNWVFVTDTLNFSFWSEQDEHKCVVRYRGKTYSGYWSLCAAVNRALDEGIPITSASYYATVTLDQVRNILRSDTDVSMPLVEERHRILNETGKILLEKFGGSFLNCVRESENSAQKLMHLVVESFPSYRDVTLFEGKRVSFYKRAQILVADTWSVLEGKGDGCFKDISSITMFADYRLPQVLAHLGALKYSDDLLKKLLKGEMLSYGDRQEVEIRGCSLWCVELIRDCLLELIEQKGEKPNGEINSILLDYYLWDYAHDHREDMKGIPFHRIRCIYY | not soluble
12 | MAHHHHHHMSSEHWVFFGLPPFFTEQHSSATLDRQCTLWSNLLLDHAIYHAQRTAGGDTNALLRFYTTQSDIFYNPAINKRLSPEGAHTMLQSLVARHPNHVVIVSDGGPRDFSVLVCTTEDGFKGMEETLLRYILDHGEVQTTAMLSKKGTVMTFDELASGAALGYGQTRSAYLARFSSAAVPVADVGRLSEEQAIRMYLHALNRRPVSAMRPFKVTLFNLDGTATQPYQGVKFGGE | soluble
13 | MGSDKIHHHHHHMATEIIYMVKDWFEWHDLYKNEPKLQQRLQIVQEYISYSLNLPEPGLIRVVSVCAGDGRDLLGTLSNHPRAKDVYARLVELNPHLVERGQQTIESLGLTKQIEFINGDATLSSNYLGAVPADIVIVCGVFGNLADEAELNRLLANLSFLSKQGAFVIWTRGHSNGIPHSETVRKFFREYGFEEVNFKLTATGDMGVGIHRYLGESLAAPKEQQFFAFTGVPSKAR | not soluble
14 | MAHHHHHHMYLYHSNKCAIKKGIPFFRNVASICFLRKAQNGEEVKRRKVFCSAKFISTISEGRETGCGQANTDQPSTPLGSYTEKSSYKDIKIVENEKEGNDAAEEINQNDIIAVDFEGTNLGKYGKVCIMQVYTEERTREGTPPQSECISREKYYIFDLLKMSVIKSVKKIIENKKTLKLVHDCREDSSALYNQLGIKFENVYDTSRAHMLLMEKNKSNDIYQVSFLQLLNDYLGIKDECLSSIKKEMYKNEKIWQVRPLSKMSIIYALKNVKYLFPLYRIFDNMLPKKIVLEKSKDFVNYCLINSRYKLPVDLAKRGNIVQAMLVSKSMLNCVFKLNSTRKGIACTPSSVAQFRDVKVGDVVLCVVSNKSIDQKILYLCKHDDVFDYWNLKERPRGKFKPSIHESATDPMIQFCDEEQPA | not soluble
15 | MGSDKIHHHHHHMQLKLSSVSKKFDHKIILEDTSFTFEQGKIYGLLGRNGAGKTTLFNCIARNLTLDGGSIQFVKDEIAFDYDNTDIGFTQTYPQLPAFMTAYEFVRFYMDIHKDKLKSPRSPEEWLNLVGIGEEDRHRLLKDFSHGMQNKVQLLLSLIVQPPVLLLDEPLTSFDPVAAHEFKQLIREAKKDSVIIFSTHILQLAQDLCDEIVLLHHQELQAVPSDKLHDPDFEQEVVTLLTAD | not soluble
16 | LIERIEGFEPQWWEQGGAKPEKPEMREPRQRNRYESAKAQREKNTRPENAANDAGAACGKIAGRSRRSRREHRTCALLQPRYGVK | soluble
17 | MGSDKIHHHHHHMLSKLWKRQAPQMVGIDIGSHEIKAILLSKTADGYKIQNHASVPVRKGAVVDHDIRDTEAVIESLRQIRRGLPKSLKFAAVAVSGSAVMTKVIYMDAALNEEEMEAQIEIEADNLIPYSLDEVSIDFERLNPNITDPTKVNVLLSACRTENIDSRVDSLDAIELDVKVVDVEAYALGRSAELIYAQLPDGAKAKSIAMVDIGANMTTFSVVENGDTTFIREQAFGGELFTQSIVSFYGMPHDEAERAKISGQLPRNYMFEVLSPFQMQLLQQIKRTLQIYCTASGREKVDYIVLCGGTAKLEGMVELLTNELGTHTIVADPFQGCLHADDVMKGQLQPNISKYMVACGLALRSYAQWRT | not soluble
18 | MFQNSPMMYDWWNDTTKPKHQQPTLNVLSPWGAYFNHIGNELLHLKIASSTVSSGCSSPQQYSSARSVGNSLSNGSVVSTTSSDGDVQLSNKENSNDKSVGDKNGNTTTNKTTVEPPPPEEPPVRVRASHREKLSDSEVLNQLREIVNPSNPLGKYEMKKQIGVGASGTVFVANVAGSTDVVAVKRMAFKTQPKKEMLLTEIKVMKQYRHPNLVNYIESYLVDADDLWVVMDYLEGGNLTDVVVKTELDEGQIAAVLQECLKALHFLHRHSIVHRDIKSDNVLLGMNGEVKLTDMGFCAQIQPGSKRDTVVGTPYWMSPEILNKKQYNYKVDIWSLGIMALEMIDGEPPYLRETPLKAIYLIAQNGKPEIKQRDRLSSEFNNFLDKCLVVDPDQRADTTELLAHPFLKKAKPLSSLIPYIRAVREK | not soluble
19 | MNAPDKTGTDRRAVPAAVDLDALIRAEHRDPFSILGPHDDGKGGQYVRAYLPAALSVRLLARDDGRELAELHMSDVPGFFVGHLEQPQPYLLKINWAGGEQITEDPYSYGPLLG | not soluble
20 | MLRRDFLKLLAAATTIAATGPVMAACSRDDNSATSGKAATDTIRIAAIGGPGEGLNINEAMSTATWAAMYAVYESLVIAGDSAPAFQLAKSVEPNKDATMWTVTLRDAPLFSDGSPVTAADVVASLKVVAKNPMRGMTYADVDVDKLKAIDDSTVEIHLTRPRADFVDAVLGVNSLVYKNGDPGTTIGSGPYVVESGDSGQGWKLAANEHFPTDRRISQSLEIQVIADADARLRAVDSGAVDLAMDLPATAARSLKNAQAWIPGPADSKALLFVLNTAVAPFNDAEVRRAVKISLDRKAMVDVALDGAGTVGADIPGFGFKDYPEGISEVRRDLDAARQIFKDKGIKELTLVTADFTPGMNDGADIAAKQLADAGVKVTVEKRDPTTYFADMAALRALPFFASYIVNRSLQSALPFMTGSHAMFNLSGFGTSGDWDKRLAAAQAETNDSQRAALLKKLAVEMQRDGGDVLWGYANEVHGRADGIPDVPVSQSVPVPTTK | not soluble
21 | MGSDKIHHHHHHMEMNEVIIDENLKESIDLWTFMLPIISHRTTIRKNIHGYMPLHWHDELQFVVIIQGEARFQVNEEAIIVQEGDGLFINSGCLHMVEDGNGSNCVYICLNVPAQSIISRELYTAYVAPYVQATNLPYVLIPSSEMWGQNIIEATLNIHQCLEEQPPYYEMDITTKLTVIWKSLITNGFPLEYDQSAMIKNQRMKAMLQWIHLHYGENIRLDDIAKAGQLSRSECCRYFKRTLKMTPLQYVTDYRIQKSVTLLQQPESNVTDVAYQVGFNSTSYFIDQFRKAMNMTPLRYKKSKLERLID | not soluble
